# The nanobody polyreactivity screen of Harvey et al. (2022)
# Assay: yeast display, Sf9 membrane polyspecificity reagent, FACS + sequencing; frameworks hold sequencing errors
# Method in brief: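 A nanobody's polyreactivity label depends on the gate it was sorted from. Yeast display cells were stained with 10% biotinylated, detergent-solubilized Sf9 membrane reagent for 1 hour at 4 °C, enriched on streptavidin microbeads and sorted by FACS. The low and high (top ~1%) gates were set on anti-HA fluorescence for expression and streptavidin fluorescence for reagent binding.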
row,Sequence,polyreactivity (PSR sort gate)
1,QVQIVQSGGGLVQAGGSLRLSCAASGSTITYNAMGWYRQAPGKERELVAAITVSDGSTYYADSVKGRFTISRDNAKNTVYLQMNSLKPEDTAVYYCNAYAVYLRYLWYDFWGQGTQVTVSS,low polyreactivity
2,QVQLQESGGGLVQAGGSLRLSCAASGSISSPQFMGWYRQAPGIERELVATIANGGITYYADGVKGRFTISRDNAKNTVYLQMNSLKPEDTAVYYCNARSQGWYNTFYYWGQGTQVTVSS,low polyreactivity
3,QVQLVESGGGLVQAGGSLRLSCAASGSTFFSYAMGWYRQAPGTERELVAAITRSGGSTYYADSVKGRFTISRDNAKNTVYLQMNSLKPEDTAVYYCAPRRYEPKAVYYWGQGTQVTVSS,high polyreactivity
4,QVQLVESGGGLVQAGGSLRLSCAASGRTIEHSAMGWYRQAPGKERELVAAINSSDGGTYYADSVKGRFTISRDNPKNTVYLQMNSLKPEDTAVYYCAAAEFGSVPGYEMDYWGHGTQVTVSS,low polyreactivity
5,QVQLVESGGGLVQAGGSLRLSCAASGRTFDTYAMGWYRQAPGKERELVAAITRRTYYADSVKGRFTISRDNAKNTVYLQMNSLKPEDTAVYYCAVRFLRKWTSSRHYGYWGQGTQVTVSS,high polyreactivity
6,QVQLVESGGGLVQAGGSLRLSCAASGRTFIANAMGWYRKAPRKERELLAVITLNGGSTYYADSVKGRFTISRDNAKKTVYLQMNSLKPEDTAVYYCNARYYPLYSKSYDSWGQGTQVPVSS,low polyreactivity
7,QVQLVESGGGLVQAGGSLRLSCAASGSTFYLNAMGWYRQAPGKERELVAAISSGGRTYYADSVKGRFTISRDNAKNTVYLQMNSLKPEDTAVYYCNAVRYLRGAYNYWGQGTQVTVSS,high polyreactivity
8,QVKLVESGGGLVQAGGRLRLSCDAYGIILVGYDMGWYRPAPGKERELVATISSGSSTYYEDSVKGRFTISRDNAKNTVYLQMNSLKPEDTAVYYCNADHAGPYWRFHDDDYWGQGTKVTVSS,low polyreactivity
9,QVQLVESGGGLVQAGGSLRLSCAASGRTFKYYAMGWYRQAPGKERELVAAISRRGGRTYYADSVKGRFTISRDNAKNTVYLQMNSLKPEDTAVYYCAAVFETGAGGFYYTLQYDSWGQGTQVTVSS,high polyreactivity
10,QVQLVESGGGLVQAGGSLRLSCAASGRIFYRNAMGWYRQAPGKERELVAAITSGGSTYYADSVKGRFTISRDNAKNTVYLQMNSLKPEDTAVYYCAAAYQRWFNRRDYWGQGTQVTVSS,high polyreactivity
11,QVQLVESGGGLVQAVGSLRLSCAASGLTFYSNAMGWYRQAPGKERELVATISQDGGRTYADSLKGRFTISRDNAKNTVYLQMNSLKPEDTAVYYCAKVRERINYDYWGQGTQVTVSS,low polyreactivity
12,QVQLVESGGGLVQAGGSLRLSCAASGRIIRSNVMGWYRQAPGKERDLVAGISRSGGSTYYADSVKGRFTISRDNAKNTVYLKMNSLKPEDTAVYYCNAGWWYLGSPFDRDYWGQGTQVTVSS,high polyreactivity
13,QVQLVESGGGLVQAGGSLRLICAASGRTFAGNAMGWYRQAPGKERELVAAITWSGGSTYYADSVKGRFTISRDNAKNTVYLQMNSLKPEDTAVYYCAADSQPPHELYESIEHESWGQGTQVTVSS,low polyreactivity
14,QVQLVESGGGLVQAGGSLRLRCAASGFTLLWNSMGWYRQAPGKEREFVAVISSGGSTNYADSVKGRFTISRDNAKNTVYLQMNSLKPEDTAVYYCATRRPSSSSAAAWFYYWGQGTQVTVSS,low polyreactivity
15,QVQLVESGGGLVQAGGSLRLSCAASGRIFGLYAMGWYTQAPGKERELVAAYADSVKGRFTISRDNAKNTVYLQMNSRKPVDTAVYYCAKGPLYAGSTIDLRDFNYWGQGTQVTVSS,low polyreactivity
16,QVQLVESGGGLVQAGGSLRLSCAASGYIFKKYAMGWYRQAPGKEREFVAAISISGGRTYYADSVKGRFTISRDNAKNTVYLQMNSLKPEDTAVYYCNKVHYGRRHSYSGAIYGEDYWGQGTQVTVSS,high polyreactivity
17,QVQLVESGGGLVQAGGSLRLSCAASGSIFRIYAMGWYRQAPGKERELVAGISKSGGSTYYADSVKGRFTISRDNAKNTVYLQMNSLKPEDTAVYYCNARRPSWGLDKYDYWGQGTQVTVSS,low polyreactivity
18,QVQLVESGGGLVQAGGSLRLSCAASGSTFNTNAMAWYRHAPGKERELVAAISWSSTRTYYADSVKGRFTISRDNAKNTVYLQMNSLKPEDTAVYYCAAATYQSRYFQRFDYWGQGTQVTVSS,high polyreactivity
19,QVQLVESGGGLVQAGGSLRLSCAASGSTFYRYAMGCYRQAPGKERELVAAISSRGGSTYYADSVKGRFTISRDNAKNTVYLQMNSLKPEDTAVYYCAAQVYGTAGYYYWGQGTQVTVSS,high polyreactivity
20,QVQLVESGGGIVQAGGSLRLSCAASGRIFYSYAMGWYRQAPGKERELVATISSGGSTNYADSVKGRFTISRDNAKNTVYLQMNSLKPEDTAVYYCGRQSLRYSYVSRDYWGQGSQVTVSS,low polyreactivity
21,QVQLVESGGALVQAGGSLRLSCAASGSIFPANPMGWYRQAPGKEWEFVAAINWSTGTTYYADSVKGRFTISRDNGKNTVYLQMNSLKPEDTAVYYFNASDQAKYDYWGQGTQVTVSS,low polyreactivity
22,QVQLVESGGGLVQAGGSLRLSCAASGSTFYRNAMGWSRPAPGKERELVAAINKSGGRTYYADSVKGRFTISRDNAKNTVYLQMNSLKPEDTAVYYCAAGVSVDLDYWGQGTQVTVSS,high polyreactivity
23,QVQLVESGGGLVQAGGSLRLSCAASGSIFVHYAMGWYRQAPGKERELVARISWRGNTYYADSVKGRFTISRDNAKNTVYLQMNSLKPEDTAVYYCAKDVRRSLVIWDVVYPHGYWGQGTQVTVSS,low polyreactivity
24,QVQLVESGGGLVQAGGSLRLSCAASGRTLSLYAMGWYRQAPGKERELVATISKSGGSTDYADSVKGRFTISRDNAKNTVYLQMNSLKPEDTAVYYCAADANSWFTSYQVYGSEFDYWGQGTQVTVSS,low polyreactivity
25,QVQLVESGGGLVQAGGSLRLSCAASGSTFDGNAMGWYRQAPGKERELVAAITYTTSSTYYADSVKGRFTISRDNAKNTVYLQMNSLKPEDTAVYYCAADASYLPYPLPGTEYEYWGQGTQVTVSS,low polyreactivity
26,QVQLVESGGGLVQAGGRLRLSCAASGSISNRYAMGWYRQAPGKERELVAAISTGGGTTYYADSVKGRFTISRDNAKNTVYLQMNSLKPEDTAVYYCAADDWRYYRELDYWGQGTQVTVSS,low polyreactivity
27,QVQLVESGGGLVQAGGSLRLRCAASGSTFSSYAMGWYRQAPGKERELVAAISSRGGRTYYADSVKARFTISRDNAKNTVYLQMNRLIPEDTAVYYCAADWGVRDEYYYWGQGTQVSVSS,high polyreactivity
28,QVQIVESGGGLVQAGGSLRLTCAASGSIFDVYTMGWYRQAPGKERELVAAISYSGGRTNYADSVKGRFTISRDNAKNTVYLQIYSLKPEDTAVYYCATTDGRTAWGVKDYYAKYNYWGQGTQVTVSS,low polyreactivity
29,QVQLEESGGGLVQAGGSLRLSCAASGSIFVGYAMGWYRQAPGKEREFVAAINYRGGSTFYADSVKGRFTISRDNAKNTVYLQMNSLKPEDTAVYYCAARYSGNRGVPKGYRYNYWGQGTQVTVSS,low polyreactivity
30,QDQLVESGGALGQAGGSLRLSCAASGSIFFYYAMGCYRQAPGKEREFVAHITSSEASTHYADSVKGRFTISRDTAKNTVYLQMNSLIPEDTAVYYCAADRYPGHRERDFWGQGSQVTVSS,low polyreactivity
